pKd: −log10 of the molar value.
Columns and labels:
[1] = molecular target: Recombinant human IFN-α/β R2-Fc chimera (human) (UniProt P48551); assay: SPR; BIAcore T-100; human IFNR2-Fc captured on a CM5 chip by an immobilized anti-human IgG Fc antibody; Nova or IFN-α2b in the solution phase; binding measured under equilibrium conditions
[2] = molecular target: Recombinant human IFN-α/β R2-Fc chimera (human) (UniProt P48551)

Chain of UniProt P48551 (P48551 27-243, change not shown): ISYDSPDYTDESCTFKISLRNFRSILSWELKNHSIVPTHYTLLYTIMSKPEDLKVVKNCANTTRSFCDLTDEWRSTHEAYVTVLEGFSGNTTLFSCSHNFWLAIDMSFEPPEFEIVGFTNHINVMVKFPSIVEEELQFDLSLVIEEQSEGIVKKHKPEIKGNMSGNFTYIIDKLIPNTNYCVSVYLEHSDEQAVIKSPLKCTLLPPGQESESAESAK

pKd [1]: 10.91
anti-tumor activity against Daudi cell lines (MTT anti-proliferative assay) [2]: 2.74e+10 U/mg
anti-virus activity, WISH/VSV system (cytopathic effect reduction assay) [2]: 1.34e+09
Substance: Novaferon (ligand)

Source: PMC3976097
